Numbered stars: 1 amine (or outer) side, 2 acyl side, 3 side chain; on linkers, the order of the positions; unused ones are H or OH. Bridge positions count the residues as written; N and C are the ends. Side chains are listed from the residue outwards. Ends that are not written are not given here. * marks the point of attachment. C20 diacid = O=C(O)CCCCCCCCCCCCCCCCCCC(=O)*; C18 diacid = O=C(O)CCCCCCCCCCCCCCCCC(=O)*; C16 diacid = O=C(O)CCCCCCCCCCCCCCC(=O)*; γGlu = O=C(O)[C@H](CCC(=O)[*:2])N[*:1]; C14 diacid = O=C(O)CCCCCCCCCCCCC(=O)*; AEEA = NCCOCCOCC(=O)O

In this assay the target is T1, human calcitonin receptor (human, UniProt P30988 25-474).
T1 sequence (looked up): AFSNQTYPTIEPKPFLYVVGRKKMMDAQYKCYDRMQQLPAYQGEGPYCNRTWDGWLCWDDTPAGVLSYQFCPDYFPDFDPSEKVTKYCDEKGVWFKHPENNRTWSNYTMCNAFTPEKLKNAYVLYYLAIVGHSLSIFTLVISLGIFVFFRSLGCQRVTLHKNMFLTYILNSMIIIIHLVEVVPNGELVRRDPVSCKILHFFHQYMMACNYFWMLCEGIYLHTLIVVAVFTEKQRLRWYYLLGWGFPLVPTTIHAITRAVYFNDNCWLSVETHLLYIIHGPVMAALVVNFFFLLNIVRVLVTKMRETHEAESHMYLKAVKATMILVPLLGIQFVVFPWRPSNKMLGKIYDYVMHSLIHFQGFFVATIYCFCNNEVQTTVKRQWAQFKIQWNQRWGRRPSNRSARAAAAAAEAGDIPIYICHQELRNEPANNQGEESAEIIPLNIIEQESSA
In words: cell-based or functional assay.

B1: N^ε1-[2-[2-[2-[[2-[2-[2-[[(4S)-4-carboxy-4-(19-carboxynonadecanoylamino)butanoyl]amino]ethoxy]ethoxy]acetyl]amino]ethoxy]ethoxy]acetyl]-[Arg17,Pro21,Pro27,Pro34 … (peptide)
peptide: K([AEEA-AEEA-γGlu-C20 diacid])CNTATCATQRLANFLRHSSPNFGAIPSSTNVGPNTY-NH2
modifications: disulfide 2-7; N-terminus assumed
SMILES: CC[C@H](C)[C@H](NC(=O)[C@H](C)NC(=O)CNC(=O)[C@H](Cc1ccccc1)NC(=O)[C@H](CC(N)=O)NC(=O)[C@@H]1CCCN1C(=O)[C@H](CO)NC(=O)[C@H](CO)NC(=O)[C@H](Cc1c[nH]cn1)NC(=O)[C@H](CCCNC(=N)N)NC(=O)[C@H](CC(C)C)NC(=O)[C@H](Cc1ccccc1)NC(=O)[C@H](CC(N)=O)NC(=O)[C@H](C)NC(=O)[C@H](CC(C)C)NC(=O)[C@H](CCCNC(=N)N)NC(=O)[C@H](CCC(N)=O)NC(=O)[C@@H](NC(=O)[C@H](C)NC(=O)[C@@H]1CSSC[C@H](NC(=O)[C@@H](N)CCCCNC(=O)COCCOCCNC(=O)COCCOCCNC(=O)CC[C@H](NC(=O)CCCCCCCCCCCCCCCCCCC(=O)O)C(=O)O)C(=O)N[C@@H](CC(N)=O)C(=O)N[C@@H]([C@@H](C)O)C(=O)N[C@@H](C)C(=O)N[C@@H]([C@@H](C)O)C(=O)N1)[C@@H](C)O)C(=O)N1CCC[C@H]1C(=O)N[C@@H](CO)C(=O)N[C@@H](CO)C(=O)N[C@H](C(=O)N[C@@H](CC(N)=O)C(=O)N[C@H](C(=O)NCC(=O)N1CCC[C@H]1C(=O)N[C@@H](CC(N)=O)C(=O)N[C@H](C(=O)N[C@@H](Cc1ccc(O)cc1)C(N)=O)[C@@H](C)O)C(C)C)[C@@H](C)O
notes: synthetic peptide amide; also called compound 98
For B1, the “hCTR funct. EC50 (pM)” value worked out at 1630 pM.

B2: N^ε1-[(4S)-4-carboxy-4-(17-carboxyheptadecanoylamino)butanoyl]-[Arg17,Pro21,Pro27,His34]-h-amylin (peptide)
peptide: K([γGlu-C18 diacid])CNTATCATQRLANFLRHSSPNFGAIPSSTNVGHNTY-NH2
modifications: disulfide 2-7; N-terminus assumed
SMILES: CC[C@H](C)[C@H](NC(=O)[C@H](C)NC(=O)CNC(=O)[C@H](Cc1ccccc1)NC(=O)[C@H](CC(N)=O)NC(=O)[C@@H]1CCCN1C(=O)[C@H](CO)NC(=O)[C@H](CO)NC(=O)[C@H](Cc1c[nH]cn1)NC(=O)[C@H](CCCNC(=N)N)NC(=O)[C@H](CC(C)C)NC(=O)[C@H](Cc1ccccc1)NC(=O)[C@H](CC(N)=O)NC(=O)[C@H](C)NC(=O)[C@H](CC(C)C)NC(=O)[C@H](CCCNC(=N)N)NC(=O)[C@H](CCC(N)=O)NC(=O)[C@@H](NC(=O)[C@H](C)NC(=O)[C@@H]1CSSC[C@H](NC(=O)[C@@H](N)CCCCNC(=O)CC[C@H](NC(=O)CCCCCCCCCCCCCCCCC(=O)O)C(=O)O)C(=O)N[C@@H](CC(N)=O)C(=O)N[C@@H]([C@@H](C)O)C(=O)N[C@@H](C)C(=O)N[C@@H]([C@@H](C)O)C(=O)N1)[C@@H](C)O)C(=O)N1CCC[C@H]1C(=O)N[C@@H](CO)C(=O)N[C@@H](CO)C(=O)N[C@H](C(=O)N[C@@H](CC(N)=O)C(=O)N[C@H](C(=O)NCC(=O)N[C@@H](Cc1c[nH]cn1)C(=O)N[C@@H](CC(N)=O)C(=O)N[C@H](C(=O)N[C@@H](Cc1ccc(O)cc1)C(N)=O)[C@@H](C)O)C(C)C)[C@@H](C)O
notes: synthetic peptide amide
Take B2: the “hCTR funct. EC50 (pM)” value was 5850 pM.

B3: N^ε1-[(4S)-4-carboxy-4-(19-carboxynonadecanoylamino)butanoyl]-[Asp14,Arg17,Pro21,Pro27,Pro34,Arg35]-h-amylin (peptide)
peptide: K([γGlu-C20 diacid])CNTATCATQRLADFLRHSSPNFGAIPSSTNVGPRTY-NH2
modifications: disulfide 2-7; N-terminus assumed
SMILES: CC[C@H](C)[C@H](NC(=O)[C@H](C)NC(=O)CNC(=O)[C@H](Cc1ccccc1)NC(=O)[C@H](CC(N)=O)NC(=O)[C@@H]1CCCN1C(=O)[C@H](CO)NC(=O)[C@H](CO)NC(=O)[C@H](Cc1c[nH]cn1)NC(=O)[C@H](CCCNC(=N)N)NC(=O)[C@H](CC(C)C)NC(=O)[C@H](Cc1ccccc1)NC(=O)[C@H](CC(=O)O)NC(=O)[C@H](C)NC(=O)[C@H](CC(C)C)NC(=O)[C@H](CCCNC(=N)N)NC(=O)[C@H](CCC(N)=O)NC(=O)[C@@H](NC(=O)[C@H](C)NC(=O)[C@@H]1CSSC[C@H](NC(=O)[C@@H](N)CCCCNC(=O)CC[C@H](NC(=O)CCCCCCCCCCCCCCCCCCC(=O)O)C(=O)O)C(=O)N[C@@H](CC(N)=O)C(=O)N[C@@H]([C@@H](C)O)C(=O)N[C@@H](C)C(=O)N[C@@H]([C@@H](C)O)C(=O)N1)[C@@H](C)O)C(=O)N1CCC[C@H]1C(=O)N[C@@H](CO)C(=O)N[C@@H](CO)C(=O)N[C@H](C(=O)N[C@@H](CC(N)=O)C(=O)N[C@H](C(=O)NCC(=O)N1CCC[C@H]1C(=O)N[C@@H](CCCNC(=N)N)C(=O)N[C@H](C(=O)N[C@@H](Cc1ccc(O)cc1)C(N)=O)[C@@H](C)O)C(C)C)[C@@H](C)O
notes: synthetic peptide amide
For the molecule B3, the “hCTR funct. EC50 (pM)” value came to 3640 pM.

B4: N^ε1-[(4S)-4-carboxy-4-(15-carboxypentadecanoylamino)butanoyl]-[Arg17,Pro21,Pro27,His34]-h-amylin (peptide)
peptide: K([γGlu-C16 diacid])CNTATCATQRLANFLRHSSPNFGAIPSSTNVGHNTY-NH2
modifications: disulfide 2-7; N-terminus assumed
SMILES: CC[C@H](C)[C@H](NC(=O)[C@H](C)NC(=O)CNC(=O)[C@H](Cc1ccccc1)NC(=O)[C@H](CC(N)=O)NC(=O)[C@@H]1CCCN1C(=O)[C@H](CO)NC(=O)[C@H](CO)NC(=O)[C@H](Cc1c[nH]cn1)NC(=O)[C@H](CCCNC(=N)N)NC(=O)[C@H](CC(C)C)NC(=O)[C@H](Cc1ccccc1)NC(=O)[C@H](CC(N)=O)NC(=O)[C@H](C)NC(=O)[C@H](CC(C)C)NC(=O)[C@H](CCCNC(=N)N)NC(=O)[C@H](CCC(N)=O)NC(=O)[C@@H](NC(=O)[C@H](C)NC(=O)[C@@H]1CSSC[C@H](NC(=O)[C@@H](N)CCCCNC(=O)CC[C@H](NC(=O)CCCCCCCCCCCCCCC(=O)O)C(=O)O)C(=O)N[C@@H](CC(N)=O)C(=O)N[C@@H]([C@@H](C)O)C(=O)N[C@@H](C)C(=O)N[C@@H]([C@@H](C)O)C(=O)N1)[C@@H](C)O)C(=O)N1CCC[C@H]1C(=O)N[C@@H](CO)C(=O)N[C@@H](CO)C(=O)N[C@H](C(=O)N[C@@H](CC(N)=O)C(=O)N[C@H](C(=O)NCC(=O)N[C@@H](Cc1c[nH]cn1)C(=O)N[C@@H](CC(N)=O)C(=O)N[C@H](C(=O)N[C@@H](Cc1ccc(O)cc1)C(N)=O)[C@@H](C)O)C(C)C)[C@@H](C)O
notes: synthetic peptide amide
Take B4: the “hCTR funct. EC50 (pM)” value came out at 2210 pM.

B5: N^ε1-[(4S)-4-carboxy-4-(19-carboxynonadecanoylamino)butanoyl]-[Glu14,Arg17,Pro21,Pro27,Arg34,Glu35]-h-amylin (peptide)
peptide: K([γGlu-C20 diacid])CNTATCATQRLAEFLRHSSPNFGAIPSSTNVGRETY-NH2
modifications: disulfide 2-7; N-terminus assumed
SMILES: CC[C@H](C)[C@H](NC(=O)[C@H](C)NC(=O)CNC(=O)[C@H](Cc1ccccc1)NC(=O)[C@H](CC(N)=O)NC(=O)[C@@H]1CCCN1C(=O)[C@H](CO)NC(=O)[C@H](CO)NC(=O)[C@H](Cc1c[nH]cn1)NC(=O)[C@H](CCCNC(=N)N)NC(=O)[C@H](CC(C)C)NC(=O)[C@H](Cc1ccccc1)NC(=O)[C@H](CCC(=O)O)NC(=O)[C@H](C)NC(=O)[C@H](CC(C)C)NC(=O)[C@H](CCCNC(=N)N)NC(=O)[C@H](CCC(N)=O)NC(=O)[C@@H](NC(=O)[C@H](C)NC(=O)[C@@H]1CSSC[C@H](NC(=O)[C@@H](N)CCCCNC(=O)CC[C@H](NC(=O)CCCCCCCCCCCCCCCCCCC(=O)O)C(=O)O)C(=O)N[C@@H](CC(N)=O)C(=O)N[C@@H]([C@@H](C)O)C(=O)N[C@@H](C)C(=O)N[C@@H]([C@@H](C)O)C(=O)N1)[C@@H](C)O)C(=O)N1CCC[C@H]1C(=O)N[C@@H](CO)C(=O)N[C@@H](CO)C(=O)N[C@H](C(=O)N[C@@H](CC(N)=O)C(=O)N[C@H](C(=O)NCC(=O)N[C@@H](CCCNC(=N)N)C(=O)N[C@@H](CCC(=O)O)C(=O)N[C@H](C(=O)N[C@@H](Cc1ccc(O)cc1)C(N)=O)[C@@H](C)O)C(C)C)[C@@H](C)O
notes: synthetic peptide amide
For the molecule B5, the “hCTR funct. EC50 (pM)” value amounted to 2740 pM.

B6: N^ε1-[(4S)-4-carboxy-4-(13-carboxytridecanoylamino)butanoyl]-[Arg17,Pro21,Pro27,His34]-h-amylin (peptide)
peptide: K([γGlu-C14 diacid])CNTATCATQRLANFLRHSSPNFGAIPSSTNVGHNTY-NH2
modifications: disulfide 2-7; N-terminus assumed
SMILES: CC[C@H](C)[C@H](NC(=O)[C@H](C)NC(=O)CNC(=O)[C@H](Cc1ccccc1)NC(=O)[C@H](CC(N)=O)NC(=O)[C@@H]1CCCN1C(=O)[C@H](CO)NC(=O)[C@H](CO)NC(=O)[C@H](Cc1c[nH]cn1)NC(=O)[C@H](CCCNC(=N)N)NC(=O)[C@H](CC(C)C)NC(=O)[C@H](Cc1ccccc1)NC(=O)[C@H](CC(N)=O)NC(=O)[C@H](C)NC(=O)[C@H](CC(C)C)NC(=O)[C@H](CCCNC(=N)N)NC(=O)[C@H](CCC(N)=O)NC(=O)[C@@H](NC(=O)[C@H](C)NC(=O)[C@@H]1CSSC[C@H](NC(=O)[C@@H](N)CCCCNC(=O)CC[C@H](NC(=O)CCCCCCCCCCCCC(=O)O)C(=O)O)C(=O)N[C@@H](CC(N)=O)C(=O)N[C@@H]([C@@H](C)O)C(=O)N[C@@H](C)C(=O)N[C@@H]([C@@H](C)O)C(=O)N1)[C@@H](C)O)C(=O)N1CCC[C@H]1C(=O)N[C@@H](CO)C(=O)N[C@@H](CO)C(=O)N[C@H](C(=O)N[C@@H](CC(N)=O)C(=O)N[C@H](C(=O)NCC(=O)N[C@@H](Cc1c[nH]cn1)C(=O)N[C@@H](CC(N)=O)C(=O)N[C@H](C(=O)N[C@@H](Cc1ccc(O)cc1)C(N)=O)[C@@H](C)O)C(C)C)[C@@H](C)O
notes: synthetic peptide amide
For the molecule B6, the “hCTR funct. EC50 (pM)” value turned out to be 1090 pM.

(Values after US20140087995A1 (published 2014).)
